Experimental data as given in patent US20260226500A1.
Several values for one entry are separate records, joined by “and”; a condition that tells them apart may be missing. Identical values can stand only once.

Columns and labels:
[1] = target: OT-1 TCR (OVA-restricted T cell receptor) (mouse)
[2] = target: P14 TCR (gp33-specific T cell receptor) (mouse)
P14 TCR (gp33-specific T cell receptor) (mouse), sequence (chain, as listed by the source limits assumed): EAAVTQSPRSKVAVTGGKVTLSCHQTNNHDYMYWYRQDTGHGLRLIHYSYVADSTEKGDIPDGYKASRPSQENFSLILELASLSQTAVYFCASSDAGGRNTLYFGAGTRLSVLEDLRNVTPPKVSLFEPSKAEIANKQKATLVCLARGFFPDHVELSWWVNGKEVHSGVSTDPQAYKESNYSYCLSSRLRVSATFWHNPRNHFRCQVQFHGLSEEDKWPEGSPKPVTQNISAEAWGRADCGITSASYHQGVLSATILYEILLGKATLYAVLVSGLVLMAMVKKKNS

OT-1 TCR (OVA-restricted T cell receptor) (mouse), sequence (chain, as listed by the source limits assumed, chain 1 of 2): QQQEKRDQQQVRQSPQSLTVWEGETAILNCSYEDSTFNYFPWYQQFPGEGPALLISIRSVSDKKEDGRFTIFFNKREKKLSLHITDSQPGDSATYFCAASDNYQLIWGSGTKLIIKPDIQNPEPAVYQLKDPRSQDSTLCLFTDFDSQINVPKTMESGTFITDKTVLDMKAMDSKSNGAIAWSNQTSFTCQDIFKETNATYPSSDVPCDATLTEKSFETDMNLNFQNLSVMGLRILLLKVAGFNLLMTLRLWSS
OT-1 TCR (OVA-restricted T cell receptor) (mouse), sequence (chain, as listed by the source limits assumed, chain 2 of 2): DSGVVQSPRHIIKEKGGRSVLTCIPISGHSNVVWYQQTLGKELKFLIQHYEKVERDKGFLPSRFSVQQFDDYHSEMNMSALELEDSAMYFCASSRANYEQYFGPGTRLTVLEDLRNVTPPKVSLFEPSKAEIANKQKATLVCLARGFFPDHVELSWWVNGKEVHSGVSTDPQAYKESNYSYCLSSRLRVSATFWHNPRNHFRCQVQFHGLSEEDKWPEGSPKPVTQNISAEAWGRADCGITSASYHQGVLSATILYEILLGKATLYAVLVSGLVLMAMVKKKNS

Substance	percent OVA Pentamer+ GFP+ cells (Q2) (% (unit not given)) [1]	percent OVA Pentamer+ GFP- cells (Q3, upper left quadrant) (% (unit not given)) [1]	percent P14 TCR+ GFP- cells (Q1) (% (unit not given)) [2]
OVA Pentamer (peptide-MHC)	6.66	26	–
P14 TCR (y-axis stain) (antibody)	–	–	89.5 and 96.7 and 36.5
